First the molecules themselves.
T1: VEGF (human, UniProt P15692)
T1 chain: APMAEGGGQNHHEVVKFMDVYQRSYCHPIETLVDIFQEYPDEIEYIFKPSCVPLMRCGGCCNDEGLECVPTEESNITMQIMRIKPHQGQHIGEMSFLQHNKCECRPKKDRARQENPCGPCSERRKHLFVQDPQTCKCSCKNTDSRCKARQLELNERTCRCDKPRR

B1: DVD463 VEGF arm (antibody, V domains shown)
VH: EVQLVESGGGLVQPGGSLRLSCAASGFTINASWIHWVRQAPGKGLEWVGAIYPYSGYTNYADSVKGRFTISADTSKNTAYLQMNSLRAEDTAVYYCARWGHSTSPWAMDYWGQGTLVTVSS
VL: DIQMTQSPSSLSASVGDRVTITCRASQVIRRSLAWYQQKPGKAPKLLIYAASNLASGVPSRFSGSGSGTDFTLTISSLQPEDFATYYCQQSNTSPLTFGQGTKVEIKR
B2: DVD498 VEGF arm (antibody, V domains shown)
VH: EVQLVESGGGLVQPGGSLRLSCAASGFTINASWIHWVRQAPGKGLEWVGAIYPYSGYTNYADSVKGRFTISADTSKNTAYLQMNSLRAEDTAVYYCARWGHSTSPWAMDYWGQGTLVTVSS
VL: DIQMTQSPSSLSASVGDRVTITCRASQVIRRSLAWYQQKPGKAPKLLIYAASNLASGVPSRFSGSGSGTDFTLTISSLQPEDFATYYCQQSNTSPLTFGQGTKVEIKR
B3: DVD521 VEGF arm (antibody, V domains shown)
VH: EVQLVESGGGLVQPGGSLRLSCAASGFTINASWIHWVRQAPGKGLEWVGAIYPYSGYTNYADSVKGRFTISADTSKNTAYLQMNSLRAEDTAVYYCARWGHSTSPWAMDYWGQGTLVTVSS
VL: DIQMTQSPSSLSASVGDRVTITCRASQVIRRSLAWYQQKPGKAPKLLIYAASNLASGVPSRFSGSGSGTDFTLTISSLQPEDFATYYCQQSNTSPLTFGQGTKVEIKR
B4: DVD446 VEGF arm (antibody, V domains shown)
VH: EVQLVESGGGLVQPGGSLRLSCAASGFTINASWIHWVRQAPGKGLEWVGAIYPYSGYTNYADSVKGRFTISADTSKNTAYLQMNSLRAEDTAVYYCARWGHSTSPWAMDYWGQGTLVTVSS
VL: DIQMTQSPSSLSASVGDRVTITCRASQVIRRSLAWYQQKPGKAPKLLIYAASNLASGVPSRFSGSGSGTDFTLTISSLQPEDFATYYCQQSNTSPLTFGQGTKVEIKR
B5: DVD528 VEGF arm (antibody, V domains shown)
VH: EVQLVESGGGLVQPGGSLRLSCAASGFTINASWIHWVRQAPGKGLEWVGAIYPYSGYTNYADSVKGRFTISADTSKNTAYLQMNSLRAEDTAVYYCARWGHSTSPWAMDYWGQGTLVTVSS
VL: DIQMTQSPSSLSASVGDRVTITCRASQVIRRSLAWYQQKPGKAPKLLIYAASNLASGVPSRFSGSGSGTDFTLTISSLQPEDFATYYCQQSNTSPLTFGQGTKVEIKR
B6: DVD451 VEGF arm (antibody, V domains shown)
VH: EVQLVESGGGLVQPGGSLRLSCAASGFTINASWIHWVRQAPGKGLEWVGAIYPYSGYTNYADSVKGRFTISADTSKNTAYLQMNSLRAEDTAVYYCARWGHSTSPWAMDYWGQGTLVTVSS
VL: DIQMTQSPSSLSASVGDRVTITCRASQVIRRSLAWYQQKPGKAPKLLIYAASNLASGVPSRFSGSGSGTDFTLTISSLQPEDFATYYCQQSNTSPLTFGQGTKVEIKR
B7: DVD491 VEGF arm (antibody, V domains shown)
VH: EVQLVESGGGLVQPGGSLRLSCAASGFTINASWIHWVRQAPGKGLEWVGAIYPYSGYTNYADSVKGRFTISADTSKNTAYLQMNSLRAEDTAVYYCARWGHSTSPWAMDYWGQGTLVTVSS
VL: DIQMTQSPSSLSASVGDRVTITCRASQVIRRSLAWYQQKPGKAPKLLIYAASNLASGVPSRFSGSGSGTDFTLTISSLQPEDFATYYCQQSNTSPLTFGQGTKVEIKR
B8: DVD515 VEGF arm (antibody, V domains shown)
VH: EVQLVESGGGLVQPGGSLRLSCAASGFTINASWIHWVRQAPGKGLEWVGAIYPYSGYTNYADSVKGRFTISADTSKNTAYLQMNSLRAEDTAVYYCARWGHSTSPWAMDYWGQGTLVTVSS
VL: DIQMTQSPSSLSASVGDRVTITCRASQVIRRSLAWYQQKPGKAPKLLIYAASNLASGVPSRFSGSGSGTDFTLTISSLQPEDFATYYCQQSNTSPLTFGQGTKVEIKR
B9: DVD485 VEGF arm (antibody, V domains shown)
VH: EVQLVESGGGLVQPGGSLRLSCAASGFTINASWIHWVRQAPGKGLEWVGAIYPYSGYTNYADSVKGRFTISADTSKNTAYLQMNSLRAEDTAVYYCARWGHSTSPWAMDYWGQGTLVTVSS
VL: DIQMTQSPSSLSASVGDRVTITCRASQVIRRSLAWYQQKPGKAPKLLIYAASNLASGVPSRFSGSGSGTDFTLTISSLQPEDFATYYCQQSNTSPLTFGQGTKVEIKR
B10: DVD457 VEGF arm (antibody, V domains shown)
VH: EVQLVESGGGLVQPGGSLRLSCAASGFTINASWIHWVRQAPGKGLEWVGAIYPYSGYTNYADSVKGRFTISADTSKNTAYLQMNSLRAEDTAVYYCARWGHSTSPWAMDYWGQGTLVTVSS
VL: DIQMTQSPSSLSASVGDRVTITCRASQVIRRSLAWYQQKPGKAPKLLIYAASNLASGVPSRFSGSGSGTDFTLTISSLQPEDFATYYCQQSNTSPLTFGQGTKVEIKR
B11: DVD459 DLL4 arm (antibody, V domains shown)
VH: QVQLVQSGAEVKKPGASVKISCKASGYSFTAYYIHWVKQAPGQGLEWIGYISSYNGATNYNQKFKGRVTFTTDTSTSTAYMELRSLRSDDTAVYYCARDYDYDVGMDYWGQGTLVTVSS
VL: DIVMTQSPDSLAVSLGERATISCRASESVDNYGISFMKWFQQKPGQPPKLLIYAASNQGSGVPDRFSGSGSGTDFTLTISSLQAEDVAVYYCQQSKEVPWTFGGGTKVEIKR
modifications: DVD-Ig outer
B12: DVD463 DLL4 arm (antibody, V domains shown)
VH: QVQLVQSGAEVKKPGASVKISCKASGYSFTAYYIHWVKQAPGQGLEWIGYISSYNGATNYNQKFKGRVTFTTDTSTSTAYMELRSLRSDDTAVYYCARDYDYDVGMDYWGQGTLVTVSS
VL: DIVMTQSPDSLAVSLGERATISCRASESVDNYGISFMKWFQQKPGQPPKLLIYAASNQGSGVPDRFSGSGSGTDFTLTISSLQAEDVAVYYCQQSKEVPWTFGGGTKVEIKR
modifications: DVD-Ig outer
B13: DVD448 DLL4 arm (antibody, V domains shown)
VH: QVQLVQSGAEVKKPGASVKISCKASGYSFTAYYIHWVKQAPGQGLEWIGYISSYNGATNYNQKFKGRVTFTTDTSTSTAYMELRSLRSDDTAVYYCARDYDYDVGMDYWGQGTLVTVSS
VL: DIVMTQSPDSLAVSLGERATISCRASESVDNYGISFMKWFQQKPGQPPKLLIYAASNQGSGVPDRFSGSGSGTDFTLTISSLQAEDVAVYYCQQSKEVPWTFGGGTKVEIKR
modifications: DVD-Ig inner
B14: DVD507 DLL4 arm (antibody, V domains shown)
VH: EVQLQQSGPELVKPGASVKMSCKASGYTFTSYVINWVKQKPGQGLEWIGLINPYNDGTKYNEKFKVKATLTSDKSSSTAYMELSSLTSEDSAVYYCASYYYGSRYYFDYWGQGTTLTVSS
VL: DIQMTQSSSYLSVSLGGRVTITCKASDHINNWLAWYQQKPGNAPRLLISGATSLETGVPSRFSGSGSGKDYTLSITSLQTEDVATYYCQQYWSIPLTFGAGTKLELKR
modifications: DVD-Ig outer
B15: DVD500 DLL4 arm (antibody, V domains shown)
VH: EVQLQQSGPELVKPGASVKMSCKASGYTFTSYVINWVKQKPGQGLEWIGLINPYNDGTKYNEKFKVKATLTSDKSSSTAYMELSSLTSEDSAVYYCASYYYGSRYYFDYWGQGTTLTVSS
VL: DIQMTQSSSYLSVSLGGRVTITCKASDHINNWLAWYQQKPGNAPRLLISGATSLETGVPSRFSGSGSGKDYTLSITSLQTEDVATYYCQQYWSIPLTFGAGTKLELKR
modifications: DVD-Ig inner
B16: DVD522 DLL4 arm (antibody, V domains shown)
VH: EVQLQQSGPELEKPGASVKISCKASGYSFTGYNMNWVKQSNGKSLEWIGNIDPYFGGTNYNQKFKGKATLTVDKSSSTAYMQLKSLTSEDSAVYYCARNYDYDGGCFDYWGQGTTLTVSS
VL: QAVVTQESALTTSPGETVTLTCRSSTGAVTTSNYANWVQEKPDHLFTGLIGGTNNRAPGVPARFSGSLIGDKAALTITGAQTEDEAIYFCALWYSNHWVFGGGTKLTVLG
modifications: DVD-Ig inner
B17: DVD527 DLL4 arm (antibody, V domains shown)
VH: EVQLQQSGPELEKPGASVKISCKASGYSFTGYNMNWVKQSNGKSLEWIGNIDPYFGGTNYNQKFKGKATLTVDKSSSTAYMQLKSLTSEDSAVYYCARNYDYDGGCFDYWGQGTTLTVSS
VL: QAVVTQESALTTSPGETVTLTCRSSTGAVTTSNYANWVQEKPDHLFTGLIGGTNNRAPGVPARFSGSLIGDKAALTITGAQTEDEAIYFCALWYSNHWVFGGGTKLTVLG
modifications: DVD-Ig outer
B18: DVD513 DLL4 arm (antibody, V domains shown)
VH: EVQLQQSGPELEKPGASVKISCKASGYSFTGYNMNWVKQSNGKSLEWIGNIDPYFGGTNYNQKFKGKATLTVDKSSSTAYMQLKSLTSEDSAVYYCARNYDYDGGCFDYWGQGTTLTVSS
VL: QAVVTQESALTTSPGETVTLTCRSSTGAVTTSNYANWVQEKPDHLFTGLIGGTNNRAPGVPARFSGSLIGDKAALTITGAQTEDEAIYFCALWYSNHWVFGGGTKLTVLG
modifications: DVD-Ig outer
B19: DVD472 DLL4 arm (antibody)
chain 1: EVQLVESGGGLVQPGGSLRLSCAASGFTFTDNWISWVRQAPGKGLEWVGYISPNSGFTYYADSVKGRFTISADTSKNTAYLQMNSLRAEDTAVYYCARDNFGGYFDYWGQGTLVTVSS
chain 2: DIQMTQSPSSLSASVGDRVTITCRASQDVSTAVAWYQQKPGKAPKLLIYSASFLYSGVPSRFSGSGSGTDFTLTISSLQPEDFATTYYCQQSYTGTVTFGQGTKVEIKR
modifications: DVD-Ig inner
B20: DVD474 DLL4 arm (antibody)
chain 1: EVQLVESGGGLVQPGGSLRLSCAASGFTFTDNWISWVRQAPGKGLEWVGYISPNSGFTYYADSVKGRFTISADTSKNTAYLQMNSLRAEDTAVYYCARDNFGGYFDYWGQGTLVTVSS
chain 2: DIQMTQSPSSLSASVGDRVTITCRASQDVSTAVAWYQQKPGKAPKLLIYSASFLYSGVPSRFSGSGSGTDFTLTISSLQPEDFATTYYCQQSYTGTVTFGQGTKVEIKR
modifications: DVD-Ig inner
B21: DVD482 DLL4 arm (antibody)
chain 1: EVQLVESGGGLVQPGGSLRLSCAASGFTFTDNWISWVRQAPGKGLEWVGYISPNSGFTYYADSVKGRFTISADTSKNTAYLQMNSLRAEDTAVYYCARDNFGGYFDYWGQGTLVTVSS
chain 2: DIQMTQSPSSLSASVGDRVTITCRASQDVSTAVAWYQQKPGKAPKLLIYSASFLYSGVPSRFSGSGSGTDFTLTISSLQPEDFATTYYCQQSYTGTVTFGQGTKVEIKR
modifications: DVD-Ig inner

For 21 molecules, EC50 results are on record in patent US9029508 (dated 2015).

One test concerns the target T1, VEGF. Briefly: ELISA. In general terms: An ELISA detects its analyte on a solid surface through an enzyme-linked reagent.
Consider B1, for which it took 1730 nM to reach a half-maximal effect (EC50). On the same count and under the same terms, next, B2: 30.6 nM; B3: 655 nM; B4: 14.4 nM.

B5 returned an EC50 of 27.7 nM.

Take B6: the EC50 is 2400 nM. Still for that read-out and setting: with B7 the figure was 1250 nM. The same measure, in the same setting: with B8 the figure was 3020 nM; with B9, 121 nM. Same read-out and setting: next, B10: 1480 nM.

The target in the next test is DLL4 (human, UniProt Q9NR61). Briefly: ELISA.
DLL4, sequence (Q9NR61 27-524): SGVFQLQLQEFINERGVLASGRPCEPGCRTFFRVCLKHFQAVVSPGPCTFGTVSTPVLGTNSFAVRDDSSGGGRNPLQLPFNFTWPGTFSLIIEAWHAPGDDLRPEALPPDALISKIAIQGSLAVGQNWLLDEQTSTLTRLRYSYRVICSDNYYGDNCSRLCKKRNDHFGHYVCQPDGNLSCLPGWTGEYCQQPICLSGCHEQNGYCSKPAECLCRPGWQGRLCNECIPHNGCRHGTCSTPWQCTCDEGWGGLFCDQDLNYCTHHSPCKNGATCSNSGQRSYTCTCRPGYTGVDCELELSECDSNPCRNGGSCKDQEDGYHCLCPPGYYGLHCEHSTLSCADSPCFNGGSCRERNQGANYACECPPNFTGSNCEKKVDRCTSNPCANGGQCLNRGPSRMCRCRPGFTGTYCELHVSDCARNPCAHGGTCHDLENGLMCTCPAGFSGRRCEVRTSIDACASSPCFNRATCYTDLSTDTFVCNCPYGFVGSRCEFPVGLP
The molecule B11 registered an EC50 of 0.26 nM. On the same count and under the same terms, next, B12: 0.5 nM; B13: 0.41 nM; B14: 0.71 nM. On the same count and under the same terms, with B15 the figure was 0.57 nM; with B16, 0.48 nM; with B17, 0.2 nM. Same read-out and setting: next, B18: 0.66 nM.

For the molecule B19, the EC50 came to 2.78 nM.

The molecule B20 came in with an EC50 of 0.57 nM.

With B21, a half-maximal response (EC50) required 0.36 nM.

For orientation: EC50 means the midpoint of the concentration-response curve. A low value points to a more potent agent.
